Measurements reported in PMC8202958 (Cell reports, 2021).
Positions count from the first letter of the chain named. Names and notes keep the numbering of the source.

T1: MBP-Ecm25-N-term+RhoGAP (1–360aa) (S. cerevisiae, UniProt P32525 1-360)
T1 sequence (looked up): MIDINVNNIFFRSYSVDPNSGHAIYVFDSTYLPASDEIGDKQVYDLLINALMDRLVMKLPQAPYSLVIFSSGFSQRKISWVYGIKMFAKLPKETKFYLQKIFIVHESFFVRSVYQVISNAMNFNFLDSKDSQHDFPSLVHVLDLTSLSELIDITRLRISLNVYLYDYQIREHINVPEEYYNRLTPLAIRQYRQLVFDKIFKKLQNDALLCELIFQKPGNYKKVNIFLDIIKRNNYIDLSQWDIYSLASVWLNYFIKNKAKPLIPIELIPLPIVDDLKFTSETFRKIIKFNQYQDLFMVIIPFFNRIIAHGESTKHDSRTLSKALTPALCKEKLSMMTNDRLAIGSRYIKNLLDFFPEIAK

T2: MBP-Ecm25-FL (full length, 1–599aa) (S. cerevisiae, UniProt P32525 1-599)
T2 sequence (looked up): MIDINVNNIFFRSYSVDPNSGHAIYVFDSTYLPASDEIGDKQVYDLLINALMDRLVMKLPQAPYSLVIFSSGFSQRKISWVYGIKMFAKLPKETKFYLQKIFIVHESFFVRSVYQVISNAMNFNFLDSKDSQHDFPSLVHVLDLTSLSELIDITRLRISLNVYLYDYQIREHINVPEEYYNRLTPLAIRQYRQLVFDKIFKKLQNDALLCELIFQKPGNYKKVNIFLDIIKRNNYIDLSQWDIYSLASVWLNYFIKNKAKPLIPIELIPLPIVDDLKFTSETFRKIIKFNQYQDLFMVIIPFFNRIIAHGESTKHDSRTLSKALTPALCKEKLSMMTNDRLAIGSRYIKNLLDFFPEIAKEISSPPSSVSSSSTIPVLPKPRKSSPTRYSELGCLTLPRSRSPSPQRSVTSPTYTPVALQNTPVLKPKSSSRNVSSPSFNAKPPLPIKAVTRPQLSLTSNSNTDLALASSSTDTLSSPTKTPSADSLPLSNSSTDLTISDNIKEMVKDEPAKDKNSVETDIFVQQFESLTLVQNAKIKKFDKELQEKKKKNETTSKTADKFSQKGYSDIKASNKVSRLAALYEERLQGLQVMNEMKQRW

B1: GST-Cdc42(T17N) (natural protein)
chain: not shown
B2: GST-Cdc42(Q61L) (natural protein)
chain: not shown
B3: GST-Cdc42 (natural protein)
chain: not shown
B4: GST-Sla1(1–420aa, W41S) (domain or fragment, S. cerevisiae, UniProt P32790 1-420, looked up)
chain: MTVFLGIYRAVYAYEPQTPEELAIQEDDLLYLLQKSDIDDSWTVKKRVIGSDSEEPVGLVPSTYIEEAPVLKKVRAIYDYEQVQNADEELTFHENDVFDVFDDKDADWLLVKSTVSNEFGFIPGNYVEPENGSTSKQEQAPAAAEAPAATPAAAPASAAVLPTNFLPPPQHNDRARMMQSKEDQAPDEDEEGPPPAMPARPTATTETTDATAAAVRSRTRLSYSDNDNDDEEDDYYYNSNSNNVGNHEYNTEYHSWNVTEIEGRKKKKAKLSIGNNKINFIPQKGTPHEWSIDKLVSYDNEKKHMFLEFVDPYRSLELHTGNTTTCEEIMNIIGEYKGASRDPGLREVEMASKSKKRGIVQYDFMAESQDELTIKSGDKVYILDDKKSKDWWMCQLVDSGKSGLVPAQFIEPVRDKKHTE
B5: GST-Sla1(1–420aa, W108S) (domain or fragment, S. cerevisiae, UniProt P32790 1-420, looked up)
chain: B4 chain with S41W, W108S
B6: GST-Ysc84 (natural protein, S. cerevisiae, UniProt P32793 1-468, looked up)
chain: MGINNPIPRSLKSETKKAAKVLRSFVKPNQVFGADQVIPPYVLKRAKGLAIITVLKAGFLFSGRAGSGVIVARLKDGTWSAPSAIAMAGAGAGGMVGVELTDFVFILNSEEAVRSFSEFGTITLGGNVSVSAGPLGRSAEAAASASTGGVSAVFAYSKSKGLFAGVSVEGSAILERREANRKFYGDNCTSKMILSGRVKVPPAADPLLRILESRAFNFTRHDHDDNASGDDFYDDGQYSDNTSHYYDDIPDSFDSTDESSTRPNTRSSRRRGMSLGSRSRYDDDYDDDGYGRGRGYGDFDSEDEDYDYGRSPNRNSSRNRGPQIDRGTKPRANTRWEDDLYDRDTEYSRPNHSGRDYDNTRGNRRGYGRERGYSLGHGPTHPSNMSNVDDLSHKMSKTGLGNESTATNSATPTAVALYNFAGEQPGDLAFKKGDVITILKKSDSQNDWWTGRTNGKEGIFPANYVRVS
B7: GST-Lsb3 (natural protein, S. cerevisiae, UniProt P43603 1-459, looked up)
chain: MGINNPIPRSLKSETKKAAKILASFVKPNQVFGADQVIPPDVLKRAKGLAIITILKAGFLFSGRAGSGVIVARLKDGTWSAPSAIAMAGAGAGGMVGIELTDFVFILNTQDAVKSFSEFGTITLGGNVSVSAGPLGRSAEAAASASAGGVAAVFAYSKSKGLFAGVSVEGSAIIERREANRKFYGDNCTAKMILSGRIRPPPAVDPLFRVLESRAFNYRPSNGGRGSFDDDEDDYYDDDDYYNDIPSSFSSTDASSTRPNTRSTRRRAQSGSRYTFDDDDDDDDYGTGYSRNSRLAPTNSGGSGGKLDDPSGASSYYASHRRSGTAQSRARSSRNRWADDEYDDYDDDYESGYRRGNGRDRTKDREVDDLSNRFSKSRISSASTPQTSQGRFTAPTSPSTSSPKAVALYSFAGEESGDLPFRKGDVITILKKSDSQNDWWTGRVNGREGIFPANYVELV

Molecular target: T1, MBP-Ecm25-N-term+RhoGAP (1–360aa)
Assay: pull-down

Row | Binder | binding result
1 | B1 | binds
2 | B2 | binds
3 | B3 | binds

Molecular target: T2, MBP-Ecm25-FL (full length, 1–599aa)
Assay: pull-down

Row | Binder | binding result
4 | B4 | binds
5 | B5 | binds
6 | B6 | binds
7 | B7 | binds
